Test results reported in the supplement of paper PMC9732359.
± gives the uncertainty stated by the source.

Test: protein stability index of a GFP-peptide fusion (yeast GPS) (PSI 1-4); higher = more stable; sorted into four equal gates, so the index is relative within each strain
How it was run: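 Mid-log yeast cultures in leucine-free medium, carrying a pooled plasmid library, were sorted into four equal gates by their GFP/Cherry fluorescence ratio. Each plasmid expressed Cherry along with GFP fused upstream of a tiled 17-residue yeast protein peptide. Plasmids recovered from each gate were PCR-amplified and Illumina-sequenced, with reads assigned to strains by barcodes. The protein stability index was obtained by summing each gate's read frequency weighted by its gate number.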

Sequence	protein stability index (doa10∆)	protein stability index (pdr5∆)	protein stability index (san1∆)	protein stability index (ubr1∆)
IANFSRAGKYELVKSYS [YJR042W/NUP85]	2.25 ± 0.094	2.09 ± 0.074	1.28 ± 0.13	1.45 ± 0.06
ELAVENPLAKTMADAVR [SEC65]	3 ± 0.048	2.94 ± 0.039	2.5 ± 0.047	1.77 ± 0.026
FAFLNAMFFGNYGSSLQ [AAR2]	2.9 ± 0.064	2.5 ± 0.075	2.91 ± 0.072	2.56 ± 0.069
VGVSHTNEEVRNMAEEF [CYT1]	2.85 ± 0.13	2.35 ± 0.07	2.01 ± 0.13	2.22 ± 0.043
LSWCPSRFSPEKLAVSA [YGL100W/SEH1]	2.48 ± 0.078	2.57 ± 0.11	2.81 ± 0.14	–
VDSGEERNEQEREIMND [SWI3]	3.42 ± 0.069	3.26 ± 0.064	3.02 ± 0.079	3.24 ± 0.11
SYEYYNIKHKHTSIRET [SMC2]	1.61 ± 0.047	1.83 ± 0.066	1.67 ± 0.11	1.87 ± 0.049
DNRTKSTTIKNIDILNR [SMC4]	1.85 ± 0.062	2.07 ± 0.062	1.77 ± 0.15	1.67 ± 0.08
DIICEDSTLILEQLAQH [RPB2]	2.24 ± 0.047	2.56 ± 0.057	2.57 ± 0.084	2.35 ± 0.051
ADVSKLMYSITFHHHGR [SRB2]	2.82 ± 0.053	3.01 ± 0.056	2.79 ± 0.049	2.98 ± 0.04
LYHLVIMKFQSLSDNDL [ECM29]	–	1.65 ± 0.25	–	3.28 ± 0.25
APIPIREDIDDPLAKVN [BRR2]	2.9 ± 0.075	2.66 ± 0.07	2.55 ± 0.09	2.22 ± 0.059
ADVLYKTAFKPHELTES [QCR2]	3.11 ± 0.062	3.17 ± 0.059	2.98 ± 0.051	3.15 ± 0.045
LSRYVKWPEYVRLQRQK [RPL8B]	–	2.71 ± 0.24	–	–
GPDTKGQLEDFDSELIH [SMC3]	3.1 ± 0.21	3.52 ± 0.18	–	3.62 ± 0.22
TSAHEAIRADPAFKPTE [RPL5]	3.24 ± 0.15	3.17 ± 0.14	3.11 ± 0.089	3.33 ± 0.11
MTKTITVAHIQYDFKAV [RPN14]	2.42 ± 0.083	3.09 ± 0.095	2.4 ± 0.063	2.71 ± 0.043
LVQLSTMETKTLPEKKQ [SIR4]	2.88 ± 0.063	2.9 ± 0.069	2.72 ± 0.052	2.99 ± 0.059
RVVYLKHLEDNTLLISG [RPL6A]	2.63 ± 0.11	2.62 ± 0.093	1.81 ± 0.17	2.23 ± 0.059
VTVSIKSRIVKVVGPRG [RPL9A]	2.08 ± 0.051	2.63 ± 0.048	2.47 ± 0.052	2.75 ± 0.032
GDIKPEFSPRLHNIWSN [YML103C/NUP188]	3.22 ± 0.14	2.98 ± 0.091	3.32 ± 0.11	3.51 ± 0.11
PAFSFGTKSNEKKDSGS [YJL041W/NSP1]	3.17 ± 0.075	3.46 ± 0.075	3.44 ± 0.044	3.25 ± 0.065
LKKKYQIILDRFAPDNQ [SIR3]	1.9 ± 0.09	1.85 ± 0.082	1.68 ± 0.13	1.74 ± 0.062
EAFGNIKIDAKPALFER [MCD1]	2.11 ± 0.083	2.89 ± 0.15	1.84 ± 0.21	2.58 ± 0.078
FFSSDWRFLQILRNGID [POP1]	2.29 ± 0.073	2.27 ± 0.088	2.5 ± 0.1	2.18 ± 0.072
SGGLFGNQQQQLQQQPQ [YGL172W/NUP49]	2.88 ± 0.13	2.61 ± 0.15	2.89 ± 0.093	3 ± 0.12
NKRLDVIDGKLPFMQNA [YDL088C/ASM4]	2.84 ± 0.053	2.79 ± 0.053	2.44 ± 0.052	2.19 ± 0.044

Sequence	protein stability index (doa10∆)	protein stability index (pdr5∆)	protein stability index (san1∆)	protein stability index (ubr1∆)
VKLKQQKVNAVDSTFQK [SMC3]	–	2.9 ± 0.19	3.36 ± 0.15	3.29 ± 0.062
HLLYPPHIIAVACLFIT [SSN8]	1.26 ± 0.053	1.27 ± 0.038	1.32 ± 0.1	1.34 ± 0.052
IRAIRKVISEILTREVQ [RPS1B]	1.92 ± 0.07	1.65 ± 0.05	1.25 ± 0.08	1.67 ± 0.14
RQELQMQRQQQGISGSQ [SNF2]	2.65 ± 0.049	2.95 ± 0.046	2.94 ± 0.042	2.9 ± 0.041
QRDAVTLFCCLLRSRLA [RPO21]	1.78 ± 0.045	1.92 ± 0.044	1.85 ± 0.057	1.98 ± 0.041
RAVFLFRCKETHSYNFM [RPC82]	2.19 ± 0.058	2.02 ± 0.084	1.98 ± 0.091	2.47 ± 0.063
NEGAASSNPQSAYVKAF [SMC1]	2.62 ± 0.051	2.6 ± 0.053	2.5 ± 0.032	2.69 ± 0.027
LLETITYVLNTWTNSKI [YML103C/NUP188]	1.85 ± 0.05	2.21 ± 0.05	2.14 ± 0.066	2.29 ± 0.036
DSLNQLEIRNKICSSEM [RGR1]	2.24 ± 0.22	3.11 ± 0.11	2.65 ± 0.14	2.61 ± 0.22
GARVFGALKGASDGGLY [RPL5]	–	3.34 ± 0.17	–	3.11 ± 0.19
TSNKEGFNSIWKIPQND [SSN2]	3.29 ± 0.26	3.72 ± 0.3	3.45 ± 0.15	–
RIKNEQSALSQIIRLFY [ISW2]	3.08 ± 0.1	3.09 ± 0.1	2.76 ± 0.076	3.06 ± 0.073
NFGFGIDEHIDLGIKYD [RPL11A]	2.59 ± 0.1	2.51 ± 0.16	2.39 ± 0.11	2.39 ± 0.11
FDPSKDVLINELLDQVT [CDC53]	2.74 ± 0.066	2.15 ± 0.047	2.24 ± 0.087	2.5 ± 0.054
EELDITPLFPIDRNSTI [IRR1]	2.48 ± 0.11	2.9 ± 0.14	2.9 ± 0.095	2.8 ± 0.1
YIQERLKSLNDIETQLC [MED11]	2.83 ± 0.083	2.68 ± 0.091	2.77 ± 0.1	2.8 ± 0.07
KQAHEKLDASKKQQAAL [YIL149C/MLP2]	3.08 ± 0.064	2.88 ± 0.052	3.25 ± 0.059	3 ± 0.057
DLTNNPQDDDSQSKMMS [MTR3]	3.17 ± 0.084	3.39 ± 0.073	3.09 ± 0.074	3.31 ± 0.055
GLQDEIMKIGGIKLQMQ [SMC4]	2.8 ± 0.071	3.13 ± 0.053	3.02 ± 0.058	3.17 ± 0.089
RAVGGEVGASAALAPKI [RPL12A]	3.37 ± 0.14	3.21 ± 0.17	1.86 ± 0.18	3.2 ± 0.1
NYSSLPSPYKTTVYRYS [YAR002W/NUP60]	2.04 ± 0.045	2.27 ± 0.038	1.71 ± 0.057	1.91 ± 0.034
TSASQPFKFGKTSEKSE [YOR098C/NUP1]	3.1 ± 0.14	3.22 ± 0.15	2.96 ± 0.13	3.17 ± 0.093
ELVKSYSWLLFEASCME [YJR042W/NUP85]	2.96 ± 0.28	–	3.44 ± 0.16	2.41 ± 0.19
SEKGLLSATQFTQPALT [FAS1]	2.44 ± 0.061	2.65 ± 0.047	2.73 ± 0.039	2.57 ± 0.038
PDTKISSAAILGLGIAF [RPN1]	2.28 ± 0.043	2.3 ± 0.058	2.49 ± 0.087	2.06 ± 0.051
NGIVDQVLVTTNQDGLK [RPB2]	2.55 ± 0.092	2.18 ± 0.1	2.61 ± 0.088	1.81 ± 0.055
EKGPQVCAKLFGNIQKV [RPO21]	2.63 ± 0.08	2.29 ± 0.057	2.29 ± 0.079	2.09 ± 0.06
